Assay results reported in a protein production outcome set (Wang et al. 2014).

Test: label from the status in PepcDB records

Row | Sequence | protein production
1 | VATLNESIEAGLEPGAVALILEAFPIEDRVRLWRALPLELHIDVLTEMRADVRFSIINALSEVELKLTLAKLDNLSLIEWADSLPESIINEALALIEKDELELYDQANEYEDDELGRWAERKIITLPFNITVGTAKQLMERYSYDTPQQVYLINRNKQFRGAVNYYEILRSDSGVRLKTLEIETVTVLDSKMTLPEAVEALEHSALPALPVTDADQTLIGEVDWQFALSTQREIYEARLMAGTGMDEGDDLFAPVLKSSQKRGV | not failed
2 | MSAYEAVRIRLDPTPRQTRLLESHAGGARFAYNLMLAHVRRQISLGEKPDWTLYAMRRWWNEWKDEIAPWWRENSKEAYGSAFEWLSQALRNWSDSRKGRRAGRRVGWPKYKSKRSSVPRFAYTTGSFGLIEDDPKALKLPRIGRVHCMENATERVHGRRIVRMTVSRHAGFWYAALTVERPTESVPAKNRKQKNRNRQVGVDLGVRTLATLSDGTTFPNPRNYVRTQRKLRHAQQSLSRRDRGMSHGCGSKRYNRALERVRRIHARIAAQRADNIGKLTTWLADNYSDISIEDLNVQGMSHNRRLAKHVLDADFREFRRQLEYKTARAGTRLHVIDRWYPSSKTCSNCGTVKAKLSLSERVYHCGKCGLVIDRDVNAAINIQVAGSAPETLNARGGSVRQTRLECGTMRHPAKREPSGGDSRVRLGAGLGNEAMQMTSL | failed
3 | MTTIYLVRHGQASFGKANYDELSENGQAQATILGQYLKEILKEQPYVIAGTMKRHLQTAQGALKECFPDTHIYTHAGWNEFNHQQVFANYEPRFKQPELLKQDVAKEQNPRAYLAKIFESAISRWTDGEFHHEYEESWPKFKQRVEIALKMLCDELAQTKPRYAVVFTSGGVISVIAGKILELNPNRTFALNWAITNTSLTTLRLVGNEPQLLSLNEHHFIKVVNPALLTWI | failed
4 | MTTGDGRSRLLAAATRLIRTQGFAATSVEAICREAGVTKGAFFHHFPSKEALGVAAAEAWSDVTGRLFAEAPYHRPADPLDRVLAYIDFRRALVAGEIADYTCLVGTLVQEAYGSDPIRAACGASILGHAGTLEADMAAAAEARGVADVDPASLARHTQAVLQGAFILAKAGGGAAAVEEALDHLKRYLRLLFANPGASGA | failed
5 | MKRKTAVKWLAVLAGAGLLYWGNKTYLNVSPKEIRVWVLSFGVFAPLMFIGISIVRPLVLFPVSVISIAGGLAFGPLLGTLYTLFGSMCASAVSFFAAGLFSAKKNGHYERLEAIQKQMEDNGFFYIFLLRILPINFDFVSYAAGLSNVKALPYFAATAVGIIPGTIALNVLGASFLAGNLPAFFMVLALYIVFISLPFIFRKKMQNLFQESN | failed
6 | MKKTIEKILKDIIDATSITDMCDKSVCHWLQPVVDTIVFPEYYLFSSNHLKENIISLLIVLGVLLIFGLIVEEMMKRIFRKNEEKYMWVHKIFEKVIVAFLLFYSMKTIIYFIALKHHSF | failed
7 | MSLSNVFYRSSKPYPVAVRGEGVFLYDDAGRRYLDGSSGALVANIGHGRAEVGERMAAQAARLPFVHGSQFSSDVLEEYAGRLARFVGLPTFRFWAVSGGSEATESAVKLARQYHVERGEPGRFKVITRVPSYHGASLGSLAASGMGARRELYTPLMRPEAWPKLPKPDPARNGAEDAEGLRALLEREGPETVAAFMAEPVVGASDAALAPAPGYYERVRDICDEAGIIFIADEVMSGMGRCGSPLALSRWSGVTPDIAVLGKGLAAGYAPLAGLLAAPQVYETVMGGSGAFMHGFTYAGHPVSVAAGLSVLDIVEREDLTGAAKERGAQLLAGLQALQARFPQMMQVRGTGLLLGVVLGDLATGQAFETPGIASRIGAAALKRGLITYPGSGAEPNGRGDHLLLGPPLSITAAEVDGLLALLAGALEDVLGEGHHHHHH | not failed
8 | MNDIAREPVLGGAPAPAVPQPLRVRFCGSGSEYFRIWIVNLLLTIVTLGIYSAWAKVRTLQYFYRNTQLGGASFDYHGSPTAILKGRAIIFVLALAFNLSGQVSPVLTLLLLAAIGLVFPWLLVRSLRFRMANSSYRGLRFAFTGKDAQAYKVFLLWPVLTVFTFNLLAPFAHQRFKQYQHRNTRFGTTSFDFSATAGQFYGVYLRTFGMAILAVMAVGVVVVLAGVSAAAGAASGGRAIAVSLMVLAMYAAMLFLGPYFLARLQNVVWNHTTLGAHRFQSQVSAGKLFWIFISNAALLIVTLGLFTPFARVRSARYKLESVTMLAAGSLDTFVAGESTRVGALGDAAVDWYDIDIAL | failed
9 | MTLAARETAALDSVPEPPLADQLRAMDHLDALEAQSIYILREAFARLKKLALLWSLGKDSNVMIWLARKAFFGRVPFPALHVDTGKKFPEMYAFRDIYAKEWDLDLRVDPCPPIDSVDPTLPPAARSAARKTEGLKLALAKYGFDGLIAGIRRDEEATRAKERVFSPRGVEGGWDVRDQPAEFWDQFNASPPPGAHLRIHPILHWTEADIWAYTKREGIPIIPLYLSQNGKRYRSLGDQDITFPVNSNAASIDEILLELETTKVPERAGRALDHETEDAFERLRVAGYL | failed
10 | MTLNITSKQMDITPAIREHLEERLAKLGKWQTQLISPHFVLNKVPNGFSVEASIGTPLGNLLASATSDDMYKAINEVEEKLERQLNKLQHKSESRRADERLKDSFEN | not failed
11 | MFTDLDLALFFIIIFIVLFIGYIAYFWRKPDDIHKHGEWSLGGRRFGTVVVWFLLGGDLYTAYTLIAVPGAAATPGIGGGAFAMFAITYGIMIYPIVYGTMPRLYNVSKKRGYITAADFVKDRFSSRFLAMLIALTGVLAELPYIALQITGIKYVLASLSLPISISLIIAFLLVAGFTFVSGLRGPALTAIIKDAIIWAAVLVIIVYIPLKLHGFGNIFSKAATISPNLLDISPTIDIGYVSLALGSALALFLYPHAVTGTLGSKDVKTIKRNAALLPLYNVLLMFVAIIGIMSVVYFNAYPKVSSEALPLLVLHVFPSTFTAFAFAAIVVGSIVPASIMALASANLLTRNLYLEYINPNATEKAQTNLSRVLVVVVIVAALAFSLVPAASGEIVYLQTIGGAIIMQTLPSVYLALFTRKLNKYPVGLGWLAGLATTMILLVDLHFKTSLYKGFFFMYVGIIALLINLAVVGLGMLIMAAMHRIKNEGIIEDHEFLDE | failed
12 | MMNRNLVVALAGNPNCGKTSLFNELTGSKQHVGNWPGVTVEKKEGKLKFEGREITIVDLPGTYSLGAYSEDEVVARDFILKDKPDVVINVVDACNLERNLYLTTQILETGAKVVLALNMMDEANTRNIDINIEKLQKSIGIPVVPTVATKKQGIKELVKNAIKLGDSESEELYTIDYGSDIQKEVDGIKAAIDEASVTLEYPKAWVSLKLLENDDYIRKYIDNSIKDDEVKHKVSEGIENLTSIIGYEPDAFIVDKRYELISKFVKNSVKKNEVQEESTSDKIDKVLTNKFLGIPIFAIIMFAVYQVSINFGNGTLSDLINDSLGQLGTNIAFTLDGFGVPKIIGAFVRDGVFAGVGSVLGFFPMILIMFFLISLLEDSGYMARAAYVMDRLMSAVGLHGKTAVSLIVGSGCNVAGIMSARTLESKKDRMIAILITPFISCPARLTVYGVFVGAFFAKQKLGIFSLGGIIIFLLYALGIFVAICAGKFFSSKVFEGETSYFVMELPPYRLPTLKGILIHMWEKSGHFLKKAGTIILGVCIIVWILADLPAGVEYGSKDSLLGIIGTFIAPIFKPAGFGSWQAGVALITGFAAKEAVVGTLGTIYGVNEGTQLFHAIHNTFTPLSAISFMIMTLLYVPCVATIGAVKSETNSNKWTVAVIIYTCVIGWVLATIFYQVGRLLGYV | failed
13 | DRDQTLALMAQMTIPTLATWCAVYTIADQASEPYLSYVLHEDEDRIDGVKALLSKIPPPEPIPTPGARVWSAPAQAAHEAALRTSMRSLGLGEPATVSSGIGTTLATASAVGGETVVLPLVARNRVIGMLTLGKPSDEHFRQEILELAEDLSRRAALALDNARLYSERTAISQSLQRSLLPPDLPHI | failed
14 | METNRPSPDALLVNLQEEADSSVGKLKIYFGFAAGVGKTYAMLSDAKDQLAAGVDVVAGYIEPHAREETLRMLEGIPIIPPKAINHKNIALKEFDLDEALKRKPELILVDELAHTNASGVRNKKRFQDVEELLQAGIDVYTTVNVQHIESLNDIVEGITKVAVRETIPDYVFDEADRVKLIDIEPDELLKRLEQGKIYQPARAKTAMQNFFTRENLKLLREIAMRKAADRI | not failed
